Consider three molecules from patent publication US6699677B1, “Tethered ligands and methods of use” (ChemoCentryx, Inc., priority 1999, dated 2004).

Experiment [1] has as its target T1, CCR8 (Homo sapiens, UniProt P51685).
T1 construct: host or cells: mouse myeloma NSO
Put plainly: Binding of CCR8-NSO cells to immobilized stalkokines. How it is done: (§1) In one set of experiments, five 8 well chamber slides (Lab-Tek II, Nalge Nunc International, Rochester, N.Y.), 250 ul of 10 ug/ml anti-his antibody (R&D Systems, Minneapolis, Minn.) in PBS was added to each well and incubated at room temperature overnight (typically 16 hours). Following, the liquid in each well was aspirated and washed once for approximately 5 minutes with 500 ul of PBS. The wells were then “blocked” (blocked for any additional protein binding sites) with the addition of 250 ul of blocking solution (2% fetal bovine serum, 0.5% BSA in PBS) and incubation for 1 hour at room temp (e.g., 20° C.). The liquid in each well was aspirated and 250 ul of supernatant containing the chemokine-stalk-immobilization domain fusion proteins (SDF1a-FRAC, finetaxin-FRAC, CCL27-FRAC, 1309-FRAC, MIP3a-FRAC, ELC-FRAC, SLC-FRAC, MDC-FRAC, TARC-FRAC, or BRAK-FRAC) or the control supernatant was added to two wells. Each slide contained two wells with control supernatant (from mock-transfected cells) and two wells with the positive control SDF1a (which binds the ubiquitous chemokine receptor CXCR4). The four other wells were for experimental samples. The supernatants were incubated for one hour at room temperature (typically 20° C.), then incubated for an additional hour at 37° C. […] The slide was then ready for addition of cells for assay. […]

Experiment [2] has as its target T2, CCR10 (Homo sapiens, UniProt Q9NPB9).
T2 construct: Full length CCR10 expression constructs were made in pIRESpuro expression vector; expressed in transfected cells; HEK293-CCR10)
T2 sequence (Q9NPB9 1-350): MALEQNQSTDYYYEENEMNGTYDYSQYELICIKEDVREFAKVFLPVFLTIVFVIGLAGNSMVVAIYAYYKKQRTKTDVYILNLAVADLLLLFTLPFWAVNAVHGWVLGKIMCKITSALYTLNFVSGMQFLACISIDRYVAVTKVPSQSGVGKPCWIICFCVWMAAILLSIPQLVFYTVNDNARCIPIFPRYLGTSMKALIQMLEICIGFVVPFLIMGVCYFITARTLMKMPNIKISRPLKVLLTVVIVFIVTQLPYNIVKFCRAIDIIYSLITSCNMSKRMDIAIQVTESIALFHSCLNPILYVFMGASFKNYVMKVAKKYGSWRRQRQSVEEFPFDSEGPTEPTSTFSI
Put plainly: Homologous competition binding of radiolabeled chemokine on HEK293-CCR10 cells. From the text: Human, viral and murine recombinant chemokines were obtained from R&D Systems (Minneapolis, Minn.; http://cytokine.rndsystems.com/cyt_cat/cyt_cat.html). ^125I-labeled ELC and TECK were obtained from Amersham. Full length CCR10 expression constructs were made in pIRESpuro expression vector (Clontech, Palo Alto, Calif.) with a FLAG epitope tag and prolactin signal sequence, and used to generated stable transfectants in HEK293 cells. Transient and stable transfections for CCR10 and stalkokines were done using Superfect reagent (Qiagen, Valencia, Calif.) following manufacturer's protocol. Stably-transfected cells were generated by selection in 2 ug/mL puromycin for 7 days, and expression was confirmed by FACS analysis of the FLAG epitope using anti-FLAG M1 (Sigma, St. Louis, Mo.) and 2′ anti-mouse PE conjugate (Coulter Immunotech, Miami, Fla.).
(§2) Furthermore ELC-SK mediated adhesion was abolished in the presence of soluble native ELC as a competitor (FIG. 3A, top row). […] Moreover, radiolabeled ELC was used in a traditional homologous competition assay in the presence of increasing concentrations of unlabeled ELC. […] Taken together, the stalkokine-based adhesion and radiolabeled ligand binding/homologous competition assays indicate that CCR10 is a new chemokine receptor that bound a novel compliment of chemokines.

The target in experiment [3] is T2, CCR10. Put plainly: Spectrum of ligands that bind to CCR10. It counts as binding.
Source text: as §2

Experiment [4] addresses T3, CCR7 (Homo sapiens, UniProt P32248).
T3 construct: host or cells: mouse myeloma NSO
T3 sequence (P32248 25-378): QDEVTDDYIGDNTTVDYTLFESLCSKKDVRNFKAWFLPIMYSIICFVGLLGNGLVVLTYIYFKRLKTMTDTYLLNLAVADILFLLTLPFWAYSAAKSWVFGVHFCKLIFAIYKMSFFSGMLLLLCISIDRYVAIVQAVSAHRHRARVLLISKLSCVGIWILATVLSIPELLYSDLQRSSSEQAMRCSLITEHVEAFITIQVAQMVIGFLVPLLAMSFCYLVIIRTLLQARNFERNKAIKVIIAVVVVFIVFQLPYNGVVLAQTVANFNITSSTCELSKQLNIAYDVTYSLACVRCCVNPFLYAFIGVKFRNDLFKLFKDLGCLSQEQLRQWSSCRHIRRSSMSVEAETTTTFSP
Put plainly: Binding of CCR7-NSO cells to immobilized stalkokines. The procedure: as §1

T1 sequence (P51685 whole entry): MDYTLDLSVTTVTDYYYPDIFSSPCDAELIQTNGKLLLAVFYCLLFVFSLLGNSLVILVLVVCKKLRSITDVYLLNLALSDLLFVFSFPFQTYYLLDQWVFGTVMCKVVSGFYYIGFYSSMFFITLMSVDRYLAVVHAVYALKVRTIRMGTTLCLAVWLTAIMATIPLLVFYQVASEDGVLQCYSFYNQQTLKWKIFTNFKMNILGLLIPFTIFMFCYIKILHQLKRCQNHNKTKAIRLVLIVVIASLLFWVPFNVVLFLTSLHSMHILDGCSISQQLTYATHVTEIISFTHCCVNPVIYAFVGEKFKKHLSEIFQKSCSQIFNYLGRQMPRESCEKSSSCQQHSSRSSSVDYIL

B1: I309: stalkokine form of chemokine I309 (protein)
chain: KSMQVPFSRCCFSFAEQEIPLRAILCYRNTSSICSNEGLIFKLKRGKEACALDTVGWVQRHRKMLRHCPSKRKEFGGTFEKQIGEVKPRTTPAAGGMDESVVLEPEATGESSSLEPTPSSQEAQRALGTSPELPTGVTGSSGTRLPPTPKAQDGGPVGTELFRVPPVSTAATWQSSAPHQPGPSLWAEAKTSEAPSTQDPSTQASTASSPAPEENAPSEGQRVWGQGQSPRPENSLEREEMGPVPAHTDAFQDWGPGSMAHVSVVPVSSEGTPSREPVASGSWTPKAEEPIHATMDPQRLGVLITPVPDAQA
modifications: left off: small tags and cut ends
Regarding B1, the “Binding to Stalkokine form” value in experiment [1] is on record as “yes, yes”.

B2: TECK: thymus expressed chemokine, soluble recombinant (protein)
chain: QGVFEDCCLAYHYPIGWAVLRRAWTYRIQEVSGSCNLPAAIFYLPKRHRKVCGNPKSREVQRAMKLLDARNKVFAKLHHNTQTFQAGPHAVKKLSSGNSKLSSSKFSNPISSSKRNVSLLISANSGL
For B2, the “Binding of radiolabeled chemokine in homologous competition with cold chemokine” value in experiment [2] is reported as “Nearly identical results”. In addition, the “Affinity of binding to CCR10” value in experiment [3] is listed as “high affinity”.

B3: SLC: secondary lymphoid-tissue chemokine, soluble recombinant (protein, UniProt O00585 24-134, looked up)
C-C motif chemokine 21: SDGGAQDCCLKYSQRKIPAKVVRSYRKQEPSLGCSIPAILFLPRKRSQAELCADPKELWVQQLMQHLDKTPSPQKPAQGCRKDRGASKTGKKGKGSKGCKRTERSQTPKGP
As to B3, the “Binding to Stalkokine form” value in experiment [4] is recorded as “no”. Besides, the “Affinity of binding to CCR10” value in experiment [3] is reported as “high affinity”.
